Laboratory results from the supplement of paper PMC9112550, “Optimization of the antimicrobial peptide Bac7 by deep mutational scanning” (BMC Biology, 2022).

system: Escherichia coli TOP10; experiment: shrunken log2 fold change of peptide-encoding DNA abundance (4.5 h post-induction vs induction); higher = less antimicrobial activity (less host growth inhibition); conditions: time post-induction: 4.5 h; library: site-saturation at positions 5, 18, 19, 20
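Further: peptides expressed intracellularly from a pBAD plasmid library in pooled LB shake-flask culture, induced with 0.3% L-arabinose, DNA abundance read by NGS, three biological replicates, DESeq2 with apeglm shrinkage.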

RRIRSRPPRLPRPRPRPYNDPRP and RRIRYRPPRLPRPRPRPLLPPRP are within 0.2 log units of each other in “shrunken log2 fold change” value: -0.41 for the first, -0.266 for the second.

First: RRIRHRPPRLPRPRPRPNWEPRP
Second: RRIRTRPPRLPRPRPRPMNNPRP
The “shrunken log2 fold change” value of the first is higher: -0.0833 for the first, -0.582 for the second.

Compared with RRIRYRPPRLPRPRPRPQENPRP, RRIRSRPPRLPRPRPRPYHYPRP is lower in “shrunken log2 fold change” value: -0.00441 for the first, -0.527 for the second.

RRIRKRPPRLPRPRPRPREHPRP and RRIRERPPRLPRPRPRPACLPRP are within 0.2 log units of each other in “shrunken log2 fold change” value: 0.0968 for the first, -0.0938 for the second.

RRIRFRPPRLPRPRPRPKSMPRP and RRIRVRPPRLPRPRPRPDGPPRP are within 0.2 log units of each other in “shrunken log2 fold change” value: 0.102 for the first, 0.0955 for the second.

RRIRNRPPRLPRPRPRPPFHPRP and RRIRVRPPRLPRPRPRPDEFPRP are within 0.2 log units of each other in “shrunken log2 fold change” value: -0.17 for the first, -0.0422 for the second.

RRIRSRPPRLPRPRPRPRYGPRP and RRIRMRPPRLPRPRPRPHAQPRP are within 0.2 log units of each other in “shrunken log2 fold change” value: 0.0513 for the first, -0.015 for the second.

Compared with RRIRRRPPRLPRPRPRPWFWPRP, RRIRRRPPRLPRPRPRPYNFPRP is lower in “shrunken log2 fold change” value: 1.76 for the first, -0.642 for the second.

Compared with RRIRLRPPRLPRPRPRPDMKPRP, RRIRERPPRLPRPRPRPMCRPRP is higher in “shrunken log2 fold change” value: -0.286 for the first, 0.03 for the second.

Compared with RRIRLRPPRLPRPRPRPCMEPRP, RRIRYRPPRLPRPRPRPFKCPRP is lower in “shrunken log2 fold change” value: 0.115 for the first, -0.135 for the second.

RRIRERPPRLPRPRPRPALEPRP and RRIRKRPPRLPRPRPRPIRCPRP are within 0.2 log units of each other in “shrunken log2 fold change” value: 0.0291 for the first, 0.0497 for the second.

RRIRYRPPRLPRPRPRPCRRPRP and RRIRKRPPRLPRPRPRPHNPPRP are within 0.2 log units of each other in “shrunken log2 fold change” value: -0.0474 for the first, -0.0541 for the second.

Going from RRIRWRPPRLPRPRPRPDAHPRP to RRIRNRPPRLPRPRPRPRLAPRP, the “shrunken log2 fold change” value rises from 0.0254 to 0.404.

Compared with RRIRVRPPRLPRPRPRPLVEPRP, RRIRGRPPRLPRPRPRPVSPPRP is higher in “shrunken log2 fold change” value: -0.125 for the first, 0.101 for the second.

First: RRIRGRPPRLPRPRPRPWSKPRP
Second: RRIRDRPPRLPRPRPRPFWDPRP
The “shrunken log2 fold change” value of the first is lower: -0.423 for the first, 0.148 for the second.

Going from RRIRKRPPRLPRPRPRPVWGPRP to RRIRTRPPRLPRPRPRPNDWPRP, the “shrunken log2 fold change” value falls from 3.44 to -0.385.

RRIRIRPPRLPRPRPRPMEQPRP and RRIRNRPPRLPRPRPRPCCEPRP are within 0.2 log units of each other in “shrunken log2 fold change” value: -0.00783 for the first, 0.0852 for the second.

First: RRIRCRPPRLPRPRPRPQPFPRP
Second: RRIRLRPPRLPRPRPRPTNMPRP
The “shrunken log2 fold change” value of the first is higher: 0.00986 for the first, -0.537 for the second.

RRIRPRPPRLPRPRPRPWCRPRP and RRIRNRPPRLPRPRPRPGKWPRP are within 0.2 log units of each other in “shrunken log2 fold change” value: 0.0933 for the first, -0.0427 for the second.

Compared with RRIRMRPPRLPRPRPRPATQPRP, RRIRPRPPRLPRPRPRPLFEPRP is lower in “shrunken log2 fold change” value: 1.14 for the first, 0.163 for the second.

Compared with RRIRSRPPRLPRPRPRPISVPRP, RRIRWRPPRLPRPRPRPHGVPRP is higher in “shrunken log2 fold change” value: -0.151 for the first, 0.0746 for the second.

First: RRIRTRPPRLPRPRPRPEVQPRP
Second: RRIRSRPPRLPRPRPRPHNDPRP
The “shrunken log2 fold change” value of the first is higher: 0.0183 for the first, -0.309 for the second.

Compared with RRIRNRPPRLPRPRPRPVVKPRP, RRIRMRPPRLPRPRPRPWAPPRP is higher in “shrunken log2 fold change” value: 0.0106 for the first, 0.214 for the second.

First: RRIRERPPRLPRPRPRPSCEPRP
Second: RRIRWRPPRLPRPRPRPRMAPRP
The “shrunken log2 fold change” value of the first is lower: -0.668 for the first, 0.614 for the second.

RRIRLRPPRLPRPRPRPWWCPRP and RRIRKRPPRLPRPRPRPFRCPRP are within 0.2 log units of each other in “shrunken log2 fold change” value: -0.0878 for the first, -0.142 for the second.

RRIRKRPPRLPRPRPRPHHDPRP and RRIRWRPPRLPRPRPRPAYGPRP are within 0.2 log units of each other in “shrunken log2 fold change” value: -0.121 for the first, -0.213 for the second.

RRIRERPPRLPRPRPRPLSEPRP and RRIRYRPPRLPRPRPRPLKVPRP are within 0.2 log units of each other in “shrunken log2 fold change” value: 0.0884 for the first, -0.0432 for the second.

Going from RRIRPRPPRLPRPRPRPENEPRP to RRIRYRPPRLPRPRPRPTNTPRP, the “shrunken log2 fold change” value falls from 0.0949 to -1.15.

Going from RRIRTRPPRLPRPRPRPGMHPRP to RRIRQRPPRLPRPRPRPNMWPRP, the “shrunken log2 fold change” value falls from 0.0032 to -0.419.

RRIRIRPPRLPRPRPRPICRPRP and RRIRNRPPRLPRPRPRPFHTPRP are within 0.2 log units of each other in “shrunken log2 fold change” value: -0.107 for the first, -0.232 for the second.

Going from RRIRWRPPRLPRPRPRPNHFPRP to RRIRKRPPRLPRPRPRPAKEPRP, the “shrunken log2 fold change” value rises from -0.429 to -0.0233.

RRIRLRPPRLPRPRPRPPMSPRP and RRIRHRPPRLPRPRPRPRLPPRP are within 0.2 log units of each other in “shrunken log2 fold change” value: 0.0743 for the first, 0.131 for the second.

Compared with RRIRWRPPRLPRPRPRPASGPRP, RRIRMRPPRLPRPRPRPVMYPRP is lower in “shrunken log2 fold change” value: 0.461 for the first, -0.0366 for the second.

RRIRVRPPRLPRPRPRPIVEPRP and RRIRNRPPRLPRPRPRPEHAPRP are within 0.2 log units of each other in “shrunken log2 fold change” value: -0.0668 for the first, 0.0107 for the second.

RRIRVRPPRLPRPRPRPELTPRP and RRIRGRPPRLPRPRPRPDQCPRP are within 0.2 log units of each other in “shrunken log2 fold change” value: 0.149 for the first, 0.196 for the second.

Going from RRIRKRPPRLPRPRPRPCWMPRP to RRIRDRPPRLPRPRPRPLSPPRP, the “shrunken log2 fold change” value falls from 0.446 to -0.0511.

Compared with RRIRVRPPRLPRPRPRPYKWPRP, RRIRSRPPRLPRPRPRPMTPPRP is higher in “shrunken log2 fold change” value: -0.266 for the first, 0.13 for the second.

First: RRIRARPPRLPRPRPRPAGLPRP
Second: RRIRERPPRLPRPRPRPAVCPRP
The “shrunken log2 fold change” value of the first is higher: 0.387 for the first, 0.086 for the second.

RRIRSRPPRLPRPRPRPVCYPRP and RRIRARPPRLPRPRPRPCPCPRP are within 0.2 log units of each other in “shrunken log2 fold change” value: -0.268 for the first, -0.0932 for the second.

RRIRMRPPRLPRPRPRPVRRPRP and RRIRGRPPRLPRPRPRPQPVPRP are within 0.2 log units of each other in “shrunken log2 fold change” value: 0.447 for the first, 0.285 for the second.

RRIRVRPPRLPRPRPRPHRMPRP and RRIRERPPRLPRPRPRPQEMPRP are within 0.2 log units of each other in “shrunken log2 fold change” value: -0.457 for the first, -0.391 for the second.

RRIRDRPPRLPRPRPRPFHFPRP and RRIRMRPPRLPRPRPRPRFIPRP are within 0.2 log units of each other in “shrunken log2 fold change” value: -0.208 for the first, -0.154 for the second.

RRIRPRPPRLPRPRPRPTVEPRP and RRIRIRPPRLPRPRPRPFWDPRP are within 0.2 log units of each other in “shrunken log2 fold change” value: -0.104 for the first, -0.0885 for the second.

Compared with RRIRDRPPRLPRPRPRPVRRPRP, RRIRLRPPRLPRPRPRPEWWPRP is lower in “shrunken log2 fold change” value: 0.971 for the first, 0.124 for the second.

Compared with RRIRGRPPRLPRPRPRPMVKPRP, RRIRCRPPRLPRPRPRPQDKPRP is lower in “shrunken log2 fold change” value: 0.00813 for the first, -0.579 for the second.

First: RRIRDRPPRLPRPRPRPNDQPRP
Second: RRIRVRPPRLPRPRPRPKAAPRP
The “shrunken log2 fold change” value of the first is lower: -0.154 for the first, 0.1 for the second.

RRIRNRPPRLPRPRPRPWPSPRP and RRIRCRPPRLPRPRPRPDGPPRP are within 0.2 log units of each other in “shrunken log2 fold change” value: 0.0756 for the first, 0.185 for the second.

Compared with RRIRGRPPRLPRPRPRPEPRPRP, RRIRYRPPRLPRPRPRPPYQPRP is lower in “shrunken log2 fold change” value: 1.35 for the first, -0.369 for the second.

First: RRIRMRPPRLPRPRPRPCLRPRP
Second: RRIRPRPPRLPRPRPRPPMAPRP
The “shrunken log2 fold change” value of the first is lower: -0.0737 for the first, 0.338 for the second.

RRIRHRPPRLPRPRPRPKSFPRP and RRIRERPPRLPRPRPRPQCAPRP are within 0.2 log units of each other in “shrunken log2 fold change” value: -0.0233 for the first, 0.0306 for the second.

Going from RRIRGRPPRLPRPRPRPDKTPRP to RRIRGRPPRLPRPRPRPAMNPRP, the “shrunken log2 fold change” value rises from 0.104 to 0.542.

RRIRSRPPRLPRPRPRPMENPRP and RRIRARPPRLPRPRPRPDMGPRP are within 0.2 log units of each other in “shrunken log2 fold change” value: 0.0424 for the first, -0.0014 for the second.

Going from RRIRPRPPRLPRPRPRPPTIPRP to RRIRYRPPRLPRPRPRPNIEPRP, the “shrunken log2 fold change” value falls from -0.148 to -0.801.

Compared with RRIRKRPPRLPRPRPRPKYKPRP, RRIRVRPPRLPRPRPRPPINPRP is higher in “shrunken log2 fold change” value: -0.19 for the first, 0.0484 for the second.

For RRIRCRPPRLPRPRPRPPPAPRP, the “shrunken log2 fold change” value was 1.46.
